According to patent US20090028859A1 (published 2009):

Assays:
[1] = biological target: T1, KDR-alkaline phosphatase (AP) soluble fusion protein (human, UniProt P35968 20-764); assay: direct binding ELISA on immobilized KDR, detection with anti-E tag antibody-HRP, A450
T1 construct: also called KDR-AP; soluble KDR; not shown: alkaline phosphatase (AP) fusion partner
Protocol: (§1) Two assays were carried out to determine the dual antigen binding capability of the diabody. First, a cross-linking assay was used to investigate whether the diabody is capable of binding both of its target antigens simultaneously. Briefly, the diabody or its parent scFv were first incubated in a 96-well Maxi-sorp microtiter plate (Nunc, Roskilde, Denmark) precoated with Flt-1-Fc fusion protein (1 μg/ml×[…] per well overnight at 4° C.) at room temperature (RT) for 1 h. The plate was washed three times with PBS containing 0.1% Tween (PBST), followed by incubation with KDR-AP fusion protein at RT for additional 1 h. The plate-bound KDR-AP was then quantified by the addition of AP substrate, p-nitrophenyl phosphate (Sigma, St. Louis, Mo.), followed by reading of the absorbance at 405 nm (Lu, D. et al., 1999). In the second, direct binding assay, various amounts of diabody or scFv were added to KDR or Flt-1 coated 96-well plates and incubated at RT for 1 h, after which the plates were washed 3 times with PBST. The plates were then incubated at RT for 1 h with 100 μl of an anti-E tag antibody-HRP conjugate (Amersham Pharmacia Biotech). The plates were washed, peroxidase substrate added, and the absorbance at 450 nm read following the procedure described previously (Lu, D. et al., 1999).

Flt-1-Fc fusion protein [2] = biological target: T2, Flt-1-Fc fusion protein (human, UniProt P17948-2 27-687, limits assumed); assay: direct binding ELISA on immobilized Flt-1, detection with anti-E tag antibody-HRP, A450
T2 construct: Bought from R&D Systems; also called VEGFR-1; not shown: Fc part
Protocol: as §1

Flt-1-Fc fusion protein [3] = biological target: T2, Flt-1-Fc fusion protein; assay: BIAcore SPR, Flt-1-Fc immobilized, antibody injected
Protocol: The binding kinetics of the diabody and its parent scFv to KDR and Flt-1 were measured using a BIAcore biosensor (Pharmacia Biosensor). KDR-AP or Flt-1-Fc fusion protein was immobilized onto a sensor chip and soluble antibodies were injected at concentrations ranging from 1.5 nM to 100 nM. Sensorgrams were obtained at each concentration and were analyzed with, BIA Evaluation 2.0, a program to determine the rate constants kon and koff. The affinity constant, Kd, was calculated from the ratio of rate constants koff/kon.

Flt-1-Fc fusion protein [4] = biological target: T2, Flt-1-Fc fusion protein; assay: blocking ELISA: antibody mixed with a fixed amount of Flt-1-Fc, transferred to immobilized PlGF, plate-bound Flt-1-Fc detected with anti-human Fc-HRP, A450
Protocol: The assays followed previously described protocols (Zhu, Z. et al., 1998; Lu, D. et al., 1999). Briefly, various amounts of the diabody or scFv were mixed with a fixed amount of KDR-AP (100 ng) or Flt-1-Fc fusion protein (50 ng) and incubated at RT for 1 h. The mixture were then transferred to 96-well microtiter plates precoated with VEGF₁₆₅ (200 ng/well) or PlGF (200 ng/well) and incubated at RT for an additional 2 h, after which the plates were washed 5 times with PBS. For the KDR-AP assay, the substrate for AP was added, followed by reading of the absorbance at 405 nm to quantify the plate-bound KDR-AP. For the Flt-1-Fc assay, the plate was incubated with a mouse anti-human Fc-HRP conjugate to quantify the plate-bound Flt-1-Fc.

Flt-1-Fc fusion protein [5] = biological target: T2, Flt-1-Fc fusion protein; assay: competition ELISA: inhibition of Flt-1-Fc binding to immobilized VEGF165, reference scFv 6.12

T2 sequence (P17948 other isoform, or with tags, fused parts or gaps limits assumed): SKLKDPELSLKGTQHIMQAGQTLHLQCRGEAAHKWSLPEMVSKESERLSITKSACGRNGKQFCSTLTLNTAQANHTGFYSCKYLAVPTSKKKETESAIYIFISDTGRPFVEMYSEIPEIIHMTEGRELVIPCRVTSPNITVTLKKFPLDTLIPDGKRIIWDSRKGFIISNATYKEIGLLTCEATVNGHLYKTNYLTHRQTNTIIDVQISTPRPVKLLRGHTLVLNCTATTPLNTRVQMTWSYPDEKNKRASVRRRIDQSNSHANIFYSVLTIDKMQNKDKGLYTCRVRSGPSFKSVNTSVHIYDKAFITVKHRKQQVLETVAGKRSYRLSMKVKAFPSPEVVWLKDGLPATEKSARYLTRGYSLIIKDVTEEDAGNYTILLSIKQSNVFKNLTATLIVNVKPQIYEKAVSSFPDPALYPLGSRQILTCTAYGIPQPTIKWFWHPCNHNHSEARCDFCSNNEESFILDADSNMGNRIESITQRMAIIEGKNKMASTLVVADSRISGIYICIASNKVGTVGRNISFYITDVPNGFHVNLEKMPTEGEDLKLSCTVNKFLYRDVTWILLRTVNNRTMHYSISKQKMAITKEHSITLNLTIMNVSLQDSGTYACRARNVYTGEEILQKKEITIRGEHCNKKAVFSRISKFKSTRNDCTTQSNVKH
T1 sequence (P35968 20-764): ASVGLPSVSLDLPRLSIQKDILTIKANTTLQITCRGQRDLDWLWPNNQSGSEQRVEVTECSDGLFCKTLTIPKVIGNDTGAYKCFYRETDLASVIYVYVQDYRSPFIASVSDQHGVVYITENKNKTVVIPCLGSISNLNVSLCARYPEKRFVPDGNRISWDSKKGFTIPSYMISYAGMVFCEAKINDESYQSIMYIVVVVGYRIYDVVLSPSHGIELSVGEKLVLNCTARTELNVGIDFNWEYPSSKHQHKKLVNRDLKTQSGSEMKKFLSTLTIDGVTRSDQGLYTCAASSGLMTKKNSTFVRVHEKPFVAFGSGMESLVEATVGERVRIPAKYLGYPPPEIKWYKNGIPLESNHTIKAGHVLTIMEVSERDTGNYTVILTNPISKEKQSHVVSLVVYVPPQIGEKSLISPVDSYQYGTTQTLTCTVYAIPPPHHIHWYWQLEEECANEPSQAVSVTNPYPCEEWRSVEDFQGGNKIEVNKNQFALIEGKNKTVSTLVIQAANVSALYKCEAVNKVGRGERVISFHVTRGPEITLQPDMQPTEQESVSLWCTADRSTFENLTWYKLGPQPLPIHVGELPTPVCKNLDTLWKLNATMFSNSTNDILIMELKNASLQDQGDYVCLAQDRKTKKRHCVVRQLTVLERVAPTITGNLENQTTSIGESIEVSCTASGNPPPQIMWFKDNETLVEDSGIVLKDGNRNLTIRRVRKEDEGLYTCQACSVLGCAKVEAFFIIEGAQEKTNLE

B1: scFv p1C11 (scFv)
scFv: QVKLQQSGAELVGSGASVKLSCTTSGFNIKDFYMHWVKQRPEQGLEWIGWIDPENGDSDYAPKFQGKATMTADSSSNTAYLQLSSLTSEDTAVYYCNAYYGDYEGYWGQGTTVTVSSGGGGSGGGGSGGGGSDIELTQSPAIMSASPGEKVTITCSASSSVSYMHWFQQKPGTSPKLWIYSTSNLASGVPARFSGSGSGTSYSLTISRMEAEDAATYYCQQRSSYPFTFGSGTKLEIK
notes: Mouse scFv from a phage library, VH and VL joined by (GGGGS)3, made soluble from pCANTAB 5E with a C-terminal E tag (detected with anti-E tag antibody); It is not known whether the entry includes the tag; also called anti-KDR scFv
With B1 the “EC50 (read off the curve)” value [1] was roughly 0.3 nM.

B2: scFv 6.12 (scFv)
scFv: QVKLQQSGAELVKPGASVKLSCTASGFNIKDTYIHWVKQSPEQGLEWIGWIDPPNDNTKYDPKFQGKATITADTSSNTAYMQLRSLTSEDTAVYYCALPPFYFDYWGHGTTVTVSSGGGGSGGGGSGGGGSDIELTQSPKFMSTSVGDRVSVTCKASQNVDTNVAWYQQKPGQSPKALIYSASYRYSGVPDRFTGSGSGTDFTLTISNVQSEDLAEYFCQQYNSFPYTFGGGTKLEIKRA
notes: expressed soluble from pCANTAB 5E and detected with anti-E tag antibody; not shown: E tag from vector pCANTAB 5E
In the case of B2, the “EC50 (read off the curve)” value (Flt-1-Fc fusion protein [2]) is reported as roughly 0.6 nM, the Kd (Flt-1-Fc fusion protein [3]) is reported as 9.8 nM and the koff (Flt-1-Fc fusion protein [3]) is reported as 0.00236 s⁻¹. The kon (Flt-1-Fc fusion protein [3]) was 241000 M⁻¹ s⁻¹, the binding result [1] was “no binding (tested: about 12 nM)” and the “IC50 (read off the curve)” value (Flt-1-Fc fusion protein [4]) was roughly 1 nM.

B3: anti-KDR x anti-Flt-1 bifunctional diabody (bispecific antibody, part only; not given: anti-KDR domains, E tag, not shown: small tags and cut ends)
chain, part 1: GGGGSQVKLQQSGAELVKPGASVKLSCTASGFNIKDTYIHWVKQSPEQGLEWIGWIDPPNDNTKYDPKFQGKATITADTSSNTAYMQLRSLTSEDTAVYYCALPPFYFDYWGHGTTVTVSS
chain, part 2: DIELTQSPKFMSTSVGDRVSVTCKASQNVDTNVAWYQQKPGQSPKALIYSASYRYSGVPDRFTGSGSGTDFTLTISNVQSEDLAEYFCQQYNSFPYTFGGGTKLEIKRAGGGGS
For B3, the fold less potent than the parent scFv 6.12 (Flt-1-Fc fusion protein [5]) was 10 fold.
